Source: US20110064726A1

Key:
[1] = target: cynomolgus monkey IgE (cynomolgus monkey); assay: capture ELISA, antibody coated; Test 2, Cyno 5 serum
[2] = target: cynomolgus monkey IgE (cynomolgus monkey); assay: capture ELISA, antibody coated; Test 2, Cyno 7 serum
[3] = target: cynomolgus monkey IgE (cynomolgus monkey); assay: capture ELISA, antibody coated; Test 2, Cyno 3 serum
[4] = target: cynomolgus monkey IgE (cynomolgus monkey); assay: capture ELISA, antibody coated; Test 1, Cyno 1 serum
[5] = target: cynomolgus monkey IgE (cynomolgus monkey); assay: capture ELISA, antibody coated; Test 1, Cyno 3 serum
[6] = target: cynomolgus monkey IgE (cynomolgus monkey); assay: capture ELISA, antibody coated; Test 1, Cyno 7 serum
[7] = target: cynomolgus monkey IgE (cynomolgus monkey); assay: capture ELISA, antibody coated; Test 1, Cyno 2 serum
[8] = target: cynomolgus monkey IgE (cynomolgus monkey); assay: capture ELISA, antibody coated; Test 1, Cyno 5 serum
[9] = target: cynomolgus monkey IgE (cynomolgus monkey); assay: capture ELISA, antibody coated; Test 2, Cyno 2 serum
[10] = target: cynomolgus monkey IgE (cynomolgus monkey); assay: capture ELISA, antibody coated; Test 2, Cyno 1 serum

IgE concentration detected [1]: 252 ng/mL
IgE concentration detected [2]: 0 ng/mL
IgE concentration detected [3]: 135 ng/mL
IgE concentration detected [4]: 172 ng/mL
IgE concentration detected [5]: 166 ng/mL
IgE concentration detected [6]: 0 ng/mL
IgE concentration detected [7]: 52 ng/mL
IgE concentration detected [8]: 232 ng/mL
IgE concentration detected [9]: 104 ng/mL
IgE concentration detected [10]: 146 ng/mL
Substance: E25 (omalizumab) (antibody)
